Results from the supplement of paper PMC10724198.
± gives the standard deviation of the averaged measurements.

test system: Saccharomyces cerevisiae; assay: protein stability index of tFT-peptide fusion (C-terminal peptide) (PSI (0-1 scale)); higher = more stable (slower turnover); details: genetic background: wild type; temperature: 30 C
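Note: PSI is a weighted mean of sequencing reads over stability bins, variants kept only with over 10 reads, mCherry proximal and sfGFP distal, peptide attached via GGGS linker.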

VGRVGVREGVVG and VGSGGGAPRVGR are within error of each other in protein stability index: 0.638 ± 0.067 for the first, 0.647 ± 0.072 for the second.

VGSGGGKGLCRQ and VGSRGWGRWGVA are within error of each other in protein stability index: 0.674 ± 0.048 for the first, 0.693 ± 0.047 for the second.

VGSWVEVWGVIG and VGTFGAGGYAPD are within error of each other in protein stability index: 0.687 ± 0.041 for the first, 0.646 ± 0.078 for the second.

Going from VGTQIGLWVAQV to VGTRGARREVQT, the protein stability index rises from 0.591 ± 0.041 to 0.734 ± 0.07.

VGVGGRRYNVRG and VGVGGVGRRAKI are within error of each other in protein stability index: 0.66 ± 0.013 for the first, 0.687 ± 0.075 for the second.

VGVGNRRWGGGV and VGVGRRGGVGEG are within error of each other in protein stability index: 0.679 ± 0.014 for the first, 0.654 ± 0.029 for the second.

VGVRCVGVLFGV and VGVRRAGGARGW are within error of each other in protein stability index: 0.637 ± 0.0072 for the first, 0.634 ± 0.088 for the second.

VGVSGEGFSWGG and VGVSGEGFSWVG are within error of each other in protein stability index: 0.674 ± 0.019 for the first, 0.675 ± 0.021 for the second.

Compared with VGVWRGWDVDCH, VGWCTGWFVGLV is lower in protein stability index: 0.776 ± 0.061 for the first, 0.6652 ± 0.0063 for the second.

First: VGWGGGVEEVKG
Second: VHFECFLVPFLL
The protein stability index of the first is higher: 0.712 ± 0.017 for the first, 0.525 ± 0.028 for the second.

VHGRAPTSRSGT and VHRRRVSVGGGG are within error of each other in protein stability index: 0.72 ± 0.043 for the first, 0.69 ± 0.0092 for the second.

VHWRDARFLRGM and VHWVVFSVPRQA are within error of each other in protein stability index: 0.658 ± 0.045 for the first, 0.73 ± 0.033 for the second.

VIGRRRLQDWII and VIRGVVPVVRSV are within error of each other in protein stability index: 0.736 ± 0.081 for the first, 0.668 ± 0.037 for the second.

VIRRLSNPCILR and VITGGFVVGCCG are within error of each other in protein stability index: 0.663 ± 0.067 for the first, 0.623 ± 0.018 for the second.

Compared with VIYIEYIGRNFI, VKEHRPQRNPSH is higher in protein stability index: 0.631 ± 0.027 for the first, 0.675 ± 0.016 for the second.

First: VKEKKKDEKRKR
Second: VKENLCLLWVYR
The protein stability index of the first is higher: 0.747 ± 0.072 for the first, 0.562 ± 0.013 for the second.

First: VKEVSVIKNHQG
Second: VKTIRVTKSVGD
The protein stability index of the first is lower: 0.454 ± 0.11 for the first, 0.6941 ± 0.0057 for the second.

VKYPALMITGFW and VLALPSSPLLPS are within error of each other in protein stability index: 0.669 ± 0.015 for the first, 0.643 ± 0.1 for the second.

VLARPQAKAPLG and VLGGSMWLDLVC are within error of each other in protein stability index: 0.571 for the first, 0.781 ± 0.23 for the second.

Compared with VLGPFKKSIQVL, VLGRLRVGRDRV is higher in protein stability index: 0.522 ± 0.02 for the first, 0.7521 ± 0.0019 for the second.

VLGSSSKLGSLS and VLGVVGNYFESA are within error of each other in protein stability index: 0.647 ± 0.025 for the first, 0.668 ± 0.078 for the second.

VLGWCLCGRTCG and VLHGGKLFGFVR are within error of each other in protein stability index: 0.6579 ± 0.0013 for the first, 0.676 ± 0.017 for the second.

Going from VLIFSSFRSLVF to VLLAGPIPSALP, the protein stability index rises from 0.562 ± 0.081 to 0.662 ± 0.0079.

Going from VLLGCRRAWVGF to VLLHFRSFAPPV, the protein stability index falls from 0.669 ± 0.018 to 0.613 ± 0.008.

Going from VLLYAPLLPPLA to VLPRPLPALPPL, the protein stability index rises from 0.622 ± 0.018 to 0.683 ± 0.028.

Compared with VLRDLGVSLSRA, VLRHRGEGGPGA is lower in protein stability index: 0.785 ± 0.025 for the first, 0.67 ± 0.035 for the second.

VLSAPPGLLSYT and VLSGLPPGFTLV are within error of each other in protein stability index: 0.623 ± 0.053 for the first, 0.644 ± 0.012 for the second.

VLSSASRGSRCL and VLSSSTLFFLVF are within error of each other in protein stability index: 0.707 ± 0.17 for the first, 0.584 ± 0.024 for the second.

VLTFVWLVGQGF and VLVFPVVYWILR are within error of each other in protein stability index: 0.581 ± 0.048 for the first, 0.543 ± 0.038 for the second.

VNLSNLRPCPTR and VPASVRRSAPVP are within error of each other in protein stability index: 0.707 ± 0.065 for the first, 0.664 ± 0.044 for the second.

VPAVGGFLMFIG and VPCSIQWNLDEL are within error of each other in protein stability index: 0.638 ± 0.0094 for the first, 0.673 ± 0.055 for the second.

VPDDGVLLSVLE and VPFFLSNSSHIK are within error of each other in protein stability index: 0.7182 ± 0.0017 for the first, 0.679 ± 0.051 for the second.

VPFQEGHVKRFL and VPGRSPTKSTVS are within error of each other in protein stability index: 0.665 ± 0.019 for the first, 0.66808 ± 0.00013 for the second.

First: VPGWRVGGARSV
Second: VPLFLVPGLSAV
The protein stability index of the first is higher: 0.746 ± 0.048 for the first, 0.602 ± 0.0083 for the second.

VPLGFPPPPLDP and VPLRGPAPPRPR are within error of each other in protein stability index: 0.727 ± 0.038 for the first, 0.739 ± 0.035 for the second.

VPLRPFFPTLFP and VPLSPVSSGAPD are within error of each other in protein stability index: 0.712 ± 0.063 for the first, 0.66 ± 0.04 for the second.

Going from VPPHLLAPDPRL to VPPLRPVAPCRG, the protein stability index falls from 0.7158 ± 0.0066 to 0.533 ± 0.014.

VPPLVSSSSLLL and VPPPLRLWPLPV are within error of each other in protein stability index: 0.636 ± 0.082 for the first, 0.618 ± 0.076 for the second.

VPPPPPRLKRFA and VPPPRLPQPLFP are within error of each other in protein stability index: 0.639 ± 0.035 for the first, 0.717 ± 0.052 for the second.

VPRCLPVGLLFF and VPRPFILTATSE are within error of each other in protein stability index: 0.71 ± 0.19 for the first, 0.675 ± 0.084 for the second.

VPRRSLLSPPPP and VQGSRKGSRERW are within error of each other in protein stability index: 0.668 ± 0.023 for the first, 0.683 ± 0.065 for the second.

VQLHIDVRSFLF and VQTIKPVPSGLR are within error of each other in protein stability index: 0.67 ± 0.014 for the first, 0.622 ± 0.078 for the second.

Going from VQVRPVVTVPSK to VQWTEFYWVRKG, the protein stability index falls from 0.7 ± 0.068 to 0.575 ± 0.037.

First: VRALGRDGIRQC
Second: VRCCFGGRGGIA
The protein stability index of the first is lower: 0.602 ± 0.015 for the first, 0.653 ± 0.0079 for the second.

Going from VRCGGPGRAGKG to VRDRVLFVARGG, the protein stability index rises from 0.63 ± 0.052 to 0.6996 ± 0.00075.

Going from VRFVVRSVSSFV to VRFVVRVFQCSF, the protein stability index falls from 0.5973 ± 0.0014 to 0.466 ± 0.052.

VRGFFTLSGNLI and VRGKGWRGGWWG are within error of each other in protein stability index: 0.716 ± 0.072 for the first, 0.682 ± 0.031 for the second.

VRGLGRLSRAEV and VRGRGRQDVDGG are within error of each other in protein stability index: 0.77 ± 0.014 for the first, 0.699 ± 0.11 for the second.

Compared with VRGRGVYRIDKV, VRLIGVSVGALE is lower in protein stability index: 0.716 ± 0.018 for the first, 0.579 ± 0.068 for the second.

VRLLAESWEGGR and VRPEPSTGARGA are within error of each other in protein stability index: 0.702 ± 0.017 for the first, 0.669 ± 0.049 for the second.

Going from VRPFTLLSSYSV to VRPREWMIPFEC, the protein stability index rises from 0.644 ± 0.028 to 0.709 ± 0.012.

VRRRRVPSEATR and VRSDHSGLEILG are within error of each other in protein stability index: 0.667 ± 0.044 for the first, 0.782 ± 0.11 for the second.

Going from VRVECGVWGSVS to VRVEGQCWMGRI, the protein stability index rises from 0.65806 ± 0.00012 to 0.679 ± 0.017.

VRVGRGGKELND and VRVKRAGGGGVG are within error of each other in protein stability index: 0.576 ± 0.11 for the first, 0.591 ± 0.028 for the second.

VRVVGVSGGEGG and VRVVPPQPELSP are within error of each other in protein stability index: 0.644 ± 0.027 for the first, 0.648 ± 0.051 for the second.

VRVYLSQNSRFG and VRWGLLLSCLRS are within error of each other in protein stability index: 0.723 ± 0.066 for the first, 0.666 ± 0.03 for the second.

First: VRWSEVGMGVWR
Second: VSAFLPLFLLTP
The protein stability index of the first is higher: 0.708 ± 0.014 for the first, 0.601 ± 0.055 for the second.

Going from VSCNRGAYVRSR to VSFAGSPVPSSS, the protein stability index rises from 0.6776 ± 0.0053 to 0.716 ± 0.0095.

VSFCDVEVRFFV and VSFWSVFSWLSG are within error of each other in protein stability index: 0.619 ± 0.066 for the first, 0.665 ± 0.014 for the second.

VSGCPVVFRSYC and VSGDRFKRHESV are within error of each other in protein stability index: 0.693 ± 0.024 for the first, 0.695 ± 0.027 for the second.

VSGFVILDSTCP and VSIMRLGSCRQD are within error of each other in protein stability index: 0.671 ± 0.025 for the first, 0.702 ± 0.033 for the second.

VSLLCFCFGCVL and VSLPMAPPPLDG are within error of each other in protein stability index: 0.604 ± 0.022 for the first, 0.616 ± 0.013 for the second.

Compared with VSLVVGTGEWGA, VSLYRRFLGVYS is lower in protein stability index: 0.762 ± 0.17 for the first, 0.532 ± 0.011 for the second.

VSPGYWGPAPLC and VSPPPRFPLLPS are within error of each other in protein stability index: 0.682 ± 0.016 for the first, 0.669 ± 0.03 for the second.

VSPRYRDRPGPS and VSPSPLDHPFHV are within error of each other in protein stability index: 0.692 ± 0.015 for the first, 0.684 ± 0.021 for the second.

First: VSSVTFSLSFAL
Second: VSSWNALCVEGM
The protein stability index of the first is higher: 0.813 ± 0.082 for the first, 0.649 ± 0.0073 for the second.

Compared with VSTRVAVESPLG, VSVGRSSARVIG is higher in protein stability index: 0.656 ± 0.03 for the first, 0.725 ± 0.02 for the second.

VSVSERVGNMLP and VTCRALTFSLLG are within error of each other in protein stability index: 0.679 ± 0.035 for the first, 0.635 ± 0.12 for the second.

VTDTSCRAEVEQ and VTEGVGGGKGRG are within error of each other in protein stability index: 0.701 ± 0.059 for the first, 0.597 ± 0.056 for the second.

VTFPSAHSSRRF and VTIFAGIGQFWF are within error of each other in protein stability index: 0.71635 ± 0.00041 for the first, 0.706 ± 0.021 for the second.

VTKRSKKNPTNN and VTREEALICSQP are within error of each other in protein stability index: 0.691 ± 0.018 for the first, 0.811 ± 0.13 for the second.

Compared with VTSVCGYVRIWW, VTVLFFLGPSLL is lower in protein stability index: 0.71 ± 0.047 for the first, 0.575 ± 0.013 for the second.

VVAAGGASDVGG and VVADNGASGWAW are within error of each other in protein stability index: 0.712 ± 0.056 for the first, 0.7579 ± 0.0033 for the second.

Compared with VVALLGPSGGWW, VVASSRSAQRLP is lower in protein stability index: 0.742 ± 0.018 for the first, 0.7006 ± 0.0064 for the second.

VVCRTSPVCLGK and VVDGWVAAWGVW are within error of each other in protein stability index: 0.672 ± 0.019 for the first, 0.694 ± 0.003 for the second.

VVFGLESCDWRG and VVGHGLAGCKVG are within error of each other in protein stability index: 0.669 ± 0.0093 for the first, 0.668 ± 0.037 for the second.

Going from VVGRCVWRGMGG to VVGRGGGFVGPG, the protein stability index falls from 0.688 ± 0.031 to 0.616 ± 0.026.

VVGRVGGFVGPG and VVGRVTGGGSDG are within error of each other in protein stability index: 0.677 ± 0.1 for the first, 0.646 ± 0.037 for the second.

VVGRWGWACCRP and VVHATITGPVRS are within error of each other in protein stability index: 0.681 ± 0.071 for the first, 0.635 ± 0.019 for the second.

VVKKDTHVKRKT and VVLFHGLGFCHN are within error of each other in protein stability index: 0.636 ± 0.027 for the first, 0.627 ± 0.072 for the second.
